According to US20100047166A1 (published 2010):

Molecular target: T1, 58P1D12 protein expressed on the cell surface (3T3-58P1D12, MDCK/58P1D12, OVCAR-5/58P1D12, xenograft cells) (human, UniProt Q9H9P2 22-273)
T1 construct: also called cell surface 58P1D12; 58P1D12-3T3
T1 sequence: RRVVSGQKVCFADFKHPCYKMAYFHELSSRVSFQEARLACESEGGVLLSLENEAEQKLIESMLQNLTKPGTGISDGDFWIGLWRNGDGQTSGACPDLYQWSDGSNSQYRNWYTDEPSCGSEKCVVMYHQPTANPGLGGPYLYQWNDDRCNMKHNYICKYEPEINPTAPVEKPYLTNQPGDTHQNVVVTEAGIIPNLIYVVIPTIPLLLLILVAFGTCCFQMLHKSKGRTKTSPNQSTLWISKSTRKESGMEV
Assay: FACS saturation binding on 3T3-58P1D12 cells, one site binding fit

B1: 58P1D12 MAb Ha8-4c4.1 (hybridoma ATCC PTA-9404) (antibody, V domains shown)
VH: QVQLQESGPGLVKPSETLSLTCTVSGGSVSSGGYYWSWIRQPPGKGLEWIGYIYYSGGTNYNPSLKSRVTISVDTSKNQFSLKLTSVTAADTAVYYCARESGYCTNVACFPDAFDIWGQGTMVTVSS
VL: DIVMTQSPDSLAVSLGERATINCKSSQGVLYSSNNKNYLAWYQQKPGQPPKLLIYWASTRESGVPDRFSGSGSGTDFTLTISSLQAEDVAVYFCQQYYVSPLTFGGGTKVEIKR
notes: Fully human IgG1 kappa (gamma 1 kappa) from XenoMouse
Kd: 3 nM
